Results on 1 variant are retold here after IntAct's records for PubMed 19017798.

First the molecules themselves.
B1: Latent membrane protein 1 (Epstein-Barr virus (strain B95-8) (HHV-4)), P03230 (parent)
chain: MEHDLERGPPGPRRPPRGPPLSSSLGLALLLLLLALLFWLYIVMSDWTGGALLVLYSFALMLIIIILIIFIFRRDLLCPLGALCILLLMITLLLIALWNLHGQALFLGIVLFIFGCLLVLGIWIYLLEMLWRLGATIWQLLAFFLAFFLDLILLIIALYLQQNWWTLLVDLLWLLLFLAILIWMYYHGQRHSDEHHHDDSLPHPQQATDDSGHESDSNSNEGRHHLLVSGAGDGPPLCSQNLGAPGGGPDNGPQDPDNTDDNGPQDPDNTDDNGPHDPLPQDPDNTDDNGPQDPDNTDDNGPHDPLPHSPSDSAGNDGGPPQLTEEVENKGGDQGPPLMTDGGGGHSHDSGHGGGDPHLPTLLLGSSGSGGDDDDPHGPVQLSYYD
partner: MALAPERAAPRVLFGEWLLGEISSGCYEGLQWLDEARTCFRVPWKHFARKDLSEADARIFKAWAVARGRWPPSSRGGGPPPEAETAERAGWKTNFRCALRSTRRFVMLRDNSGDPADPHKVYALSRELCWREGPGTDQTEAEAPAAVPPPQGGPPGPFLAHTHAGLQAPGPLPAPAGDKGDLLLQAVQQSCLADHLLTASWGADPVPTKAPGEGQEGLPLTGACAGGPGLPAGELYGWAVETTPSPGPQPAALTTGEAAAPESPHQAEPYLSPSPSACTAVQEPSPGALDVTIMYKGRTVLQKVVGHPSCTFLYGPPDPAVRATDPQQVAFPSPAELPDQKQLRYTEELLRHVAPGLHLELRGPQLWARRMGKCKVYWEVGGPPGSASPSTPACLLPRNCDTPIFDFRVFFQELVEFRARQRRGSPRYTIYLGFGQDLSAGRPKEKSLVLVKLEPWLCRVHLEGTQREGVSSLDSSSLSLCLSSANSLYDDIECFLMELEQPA

Variants of B1 are the subject of this test. To be noted: with IRF7, Q92985-1.
For the variant P376A;H377A;G378A;P379A;V380A;Q381A;L382A;S383A, the “effect of a mutation on the interaction” value is on record as “disrupting interaction”.
